According to PMC11446282:
Read-outs that look alike come from different tables or passages of the source.

What was measured:
PP2A-B55 isoforms = type: binding, human; conditions: MS, n = 4; for log2_ratio WT_M: YFP-PME1 wild-type versus mutant IP; for log2_ratio WT_C: wild-type versus control IP
Method: Standard cloning techniques were used throughout. Point mutations were introduced by whole plasmid polymerase chain reaction (PCR). All constructs were fully sequenced. Synthetic DNA was purchased from GeneArt, Life Technologies and cloned into pcDNA5/FRT/TO (Invitrogen) expression vector containing YFP, resulting in the indicated YFP fusion proteins. These constructs were transiently transfected into HeLa cells 24 hours before harvesting cells. Cells were lysed in lysis buffer [50 mM tris-HCl (pH 7.5), 50 mM NaCl, 1 mM EDTA, 1 mM […], and 0.1% NP-40]. Complexes were immunoprecipitated at 4°C in lysis buffer with green fluorescent protein (GFP)–Trap (ChromoTek) and washed in lysis buffer. Precipitated protein complexes were washed three times in lysis buffer, eluted in 2× SDS sample buffer, and subjected to Western blotting or MS as indicated.
Pull-downs were analyzed on a Q-Exactive Plus quadrupole or Fusion Orbitrap Lumos mass spectrometer (Thermo Fisher Scientific) equipped with Easy-nLC 1000 or […] (Thermo Fisher Scientific) and nanospray source (Thermo Fisher Scientific). Peptides were resuspended in 5% methanol/1% formic acid and loaded onto a trap column [1 cm in length, 100 μm in inner diameter, ReproSil, C18 AQ 5-μm 120-Å pore (Dr. Maisch, Ammerbuch, Germany)] vented to waste via a micro-tee and eluted across a fritless analytical resolving column (35 cm in length, 100 μm in inner diameter, ReproSil, C18 AQ 3-μm 120-Å pore) pulled in-house (Sutter P-2000, Sutter Instruments, San Francisco, CA) with a 45-min gradient of 5 to 30% liquid chromatography–MS (LC-MS) buffer B (LC-MS buffer A: 0.0625% formic acid and 3% acetonitrile (ACN); LC-MS buffer B: 0.0625% formic acid, 95% ACN Q-Exactive Plus quadrupole or 0.0625% formic acid and 80% ACN Fusion Orbitrap Lumos mass).
Static modifications included carbamidomethylcysteine, and variable modifications included oxidized methionine and STY phosphorylation. Searches were filtered using orthogonal measures including mass measurement accuracy (±3 parts per million), Xcorr for charges from +2 to +4, and dCn targeting a <1% false discovery rate at the peptide level. Quantification of LC-MS/MS spectra was performed using MassChroQ ([57]) and the iBAQ method ([58]). All data were analyzed using R 4.3.0. Missing values were imputed from a normal distribution. To be included in further analysis, proteins had to be identified with more than 1 total peptide and quantified in two or more replicates of each sample. In each dataset, the abundance of the protein of interest was normalized to be equal across all samples. Statistical analyses were done using a two-tailed Student’s t test.

B55α = target: T1, B55α (Homo sapiens, UniProt P63151); test: Surface plasmon resonance with captured Twin-Strep B55α; type: binding; conditions: same SPR approach as for B55i; fig. S15
T1 construct: His; made in house; host or cells: HEK293 cells
T1 sequence (P63151 1-447): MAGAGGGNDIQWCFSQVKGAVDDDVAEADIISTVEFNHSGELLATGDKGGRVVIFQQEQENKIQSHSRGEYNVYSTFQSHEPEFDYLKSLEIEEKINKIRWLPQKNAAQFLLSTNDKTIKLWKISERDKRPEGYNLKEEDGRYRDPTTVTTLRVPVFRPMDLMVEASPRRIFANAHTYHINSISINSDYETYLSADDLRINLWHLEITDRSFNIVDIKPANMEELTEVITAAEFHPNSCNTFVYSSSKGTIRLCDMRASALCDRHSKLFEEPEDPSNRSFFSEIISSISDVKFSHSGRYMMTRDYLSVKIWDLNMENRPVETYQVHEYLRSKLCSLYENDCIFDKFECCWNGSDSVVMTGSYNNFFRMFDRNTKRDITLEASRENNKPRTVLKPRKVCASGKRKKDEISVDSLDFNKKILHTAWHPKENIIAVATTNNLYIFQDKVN

[1] = prey 2ABA_HUMAN (PPP2R2A, B55 alpha)
[2] = prey 2ABB_HUMAN (PPP2R2B, B55 beta)
[3] = prey 2ABD_HUMAN (PPP2R2D, B55 delta)
[4] = prey 2ABG_HUMAN (PPP2R2C, B55 gamma)

B1: PME1 wt (protein, UniProt Q9Y570 2-386, looked up)
Protein phosphatase …: SALEKSMHLGRLPSRPPLPGSGGSQSGAKMRMGPGRKRDFSPVPWSQYFESMEDVEVENETGKDTFRVYKSGSEGPVLLLLHGGGHSALSWAVFTAAIISRVQCRIVALDLRSHGETKVKNPEDLSAETMAKDVGNVVEAMYGDLPPPIMLIGHSMGGAIAVHTASSNLVPSLLGLCMIDVVEGTAMDALNSMQNFLRGRPKTFKSLENAIEWSVKSGQIRNLESARVSMVGQVKQCEGITSPEGSKSIVEGIIEEEEEDEEGSESISKRKKEDDMETKKDHPYTWRIELAKTEKYWDGWFRGLSNLFLSCPIPKLLLLAGVDRLDKDLTIGQMQGKFQMQVLPQCGHAVHEDAPDKVAEAVATFLIRHRFAEPIGGFQCVFPGC
PP2A-B55 isoforms; prey 2AAA_HUMAN (PPP2R1A)
  log2_ratio WT_M: 1.05
  log2_ratio WT_C: 8.03
PP2A-B55 isoforms; prey 2AAB_HUMAN (PPP2R1B)
  log2_ratio WT_M: 1.40
  log2_ratio WT_C: 6.19
PP2A-B55 isoforms; [1]
  log2_ratio WT_M: 8.62
  log2_ratio WT_C: 8.40
PP2A-B55 isoforms; [2]
  log2_ratio WT_M: 4.68
  log2_ratio WT_C: 4.02
PP2A-B55 isoforms; [3]
  log2_ratio WT_M: 5.74
  log2_ratio WT_C: 6.24
PP2A-B55 isoforms; [4]
  log2_ratio WT_M: 6.08
  log2_ratio WT_C: 5.83
PP2A-B55 isoforms; prey PP2AA_HUMAN (PPP2CA)
  log2_ratio WT_M: 0.66
  log2_ratio WT_C: 9.04
PP2A-B55 isoforms; prey PP2AB_HUMAN (PPP2CB)
  log2_ratio WT_M: 0.69
  log2_ratio WT_C: 8.00

B2: PME1: full-length PME1 protein expressed in BL21(DE3) (protein)
chain: MSALEKSMHLGRLPSRPPLPGSGGSQSGAKMRMGPGRKRDFSPVPWSQYFESMEDVEVENETGKDTFRVYKSGSEGPVLLLLHGGGHSALSWAVFTAAIISRVQCRIVALDLRSHGETKVKNPEDLSAETMAKDVGNVVEAMYGDLPPPIMLIGHSMGGAIAVHTASSNLVPSLLGLCMIDVVEGTAMDALNSMQNFLRGRPKTFKSLENAIEWSVKSGQIRNLESARVSMVGQVKQCEGITSPEGSKSIVEGIIEEEEEDEEGSESISKRKKEDDMETKKDHPYTWRIELAKTEKYWDGWFRGLSNLFLSCPIPKLLLLAGVDRLDKDLTIGQMQGKFQMQVLPQCGHAVHEDAPDKVAEAVATFLIRHRFAEPIGGFQCVFPGC
B55α
  binding to B55α, affinity range: low micromolar

B3: Arpp19: full-length Arpp19 protein (S62E in the SPR method) (protein, UniProt P56211 1-112, looked up, variant S62E)
chain: MSAEVPEAASAEEQKEMEDKVTSPEKAEEAKLKARYPHLGQKPGGSDFLRKRLQKGQKYFDEGDYNMAKAKMKNKQLPTAAPDKTEVTGDHIPTPQDLPQRKPSLVASKLAG
modifications: full-length
B55α
  binding to B55α, affinity range: low micromolar
